# Test results from paper PMC4335062, “Data-Driven Prediction and Design of bZIP Coiled-Coil Interactions” (PLoS Computational Biology, 2015).
# Where no end group is shown, it is not given here.
# T1: XBP1 (Homo sapiens, UniProt P17861)
# T1 construct: made in house
# T1 sequence (P17861 70-133 limits assumed): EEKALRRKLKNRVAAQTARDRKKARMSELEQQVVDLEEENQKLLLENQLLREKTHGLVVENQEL
# T2: Activating Transcription Factor 4 (ATF4) bZIP construct, C-terminally fluoresceinated (human, UniProt P18848 278-351, fluorescein at the C-terminus)
# T2 construct: source: previously described, donated by A.W. Reinke [18]
# T2 sequence (looked up): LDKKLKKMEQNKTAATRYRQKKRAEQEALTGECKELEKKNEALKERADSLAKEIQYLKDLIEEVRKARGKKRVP
# T3: ATF4 (Homo sapiens, UniProt P18848)
# T3 construct: made in house
# T3 sequence (P18848 278-341 limits assumed): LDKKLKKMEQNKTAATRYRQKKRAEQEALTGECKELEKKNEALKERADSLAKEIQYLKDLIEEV
# B1: ATF4-d1, rhodamine-labelled at the C-terminus (designed binder)
# chain: GESKEYKKGSGSNQIKTLRTRLSKLRKDNLQLEKDIANLERKAKDLRAEKEQLEYELGC(Rhodamine Red C2‑maleimide)
# notes: solubility linker after the His tag; added at the C-terminus for labelling; also used for the homodimer row; source: E. coli RP3098, purified (Ni-NTA under denaturing conditions, reverse-phase HPLC)
# B2: ATF6B: native human bZIP coiled coil (protein)
# chain: MAELMLLSEIADPTRFFTDNLLSPEDWGLQNSTLYSGLDEVAEEQTQLFRCPEQDVPFDGSSLDVGMDVSPSEPPWELLPIFPDLQVKSEPSSPCSSSSLSSESSRLSTEPSSEALGVGEVLHVKTESLAPPLCLLGDDPTSSFETVQINVIPTSDDSSDVQTKIEPVSPCSSVNSEASLLSADSSSQAFIGEEVLEVKTESLSPSGCLLWDVPAPSLGAVQISMGPSLDGSSGKALPTRKPPLQPKPVVLTTVPMPSRAVPPSTTVLLQSLVQPPPVSPVVLIQGAIRVQPEGPAPSLPRPERKSIVPAPMPGNSCPPEVDAKLLKRQQRMIKNRESACQSRRKKKEYLQGLEARLQAVLADNQQLRRENAALRRRLEALLAENSELKLGSGNRKVVCIMVFLLFIAFNFGPVSISEPPSAPISPRMNKGEPQPRRHLLGFSEQEPVQGVEPLQGSSQGPKEPQPSPTDQPSFSNLTAFPGGAKELLLRDLDQLFLSSDCRHFNRTESLRLADELSGWVQRHQRGRRKIPQRAQERQKSQPRKKSPPVKAVPIQPPGPPERDSVGQLQLYRHPDRSQPAFLDAIDRREDTFYVVSFRRDHLLLPAISHNKTSRPKMSLVMPAMAPNETLSGRGAPGDYEEMMQIECEVMDTRVIHIKTSTVPPSLRKQPSPTPGNATGGPLPVSAASQAHQASHQPLYLNHP
# modifications: fluorescein at the C-terminus (FRET donor) or TAMRA (FRET acceptor), by assay
# notes: native human bZIP coiled coil
# B3: FOS: native human bZIP coiled coil (protein)
# chain: EEKRRIRRERNKMAAAKCRNRRRELTDTLQAETDQLEDEKSALQTEIANLLKEKEKLEFILAAH
# modifications: C-terminal TAMRA when used as FRET acceptor
# B4: JUN-d1, rhodamine-labelled at the C-terminus (designed binder)
# chain: GESKEYKKGSGSSIAATLEKEEANLEKMNKKLAAEIESLLKEKDKLESVLNYHEGC(Rhodamine Red C2‑maleimide)
# notes: solubility linker after the His tag; added at the C-terminus for labelling; source: E. coli RP3098, purified (Ni-NTA under denaturing conditions, reverse-phase HPLC)
# Legend:
# [1] = target: partner bZIP coiled coil (Protein2); conditions: Protein2 = CI12 (CI), inter; 5000 assigned if Kd >5,000 nM or no binding; cited from earlier work
# Procedure: Supplement pcbi.1004046.s020.csv, table | column: Kd || Fig 4 Designed bZIP-binding peptides inhibit interactions of native bZIP dimers. […] The dissociation constants at the indicated temperatures are Kd ≤ 1 nM for FOS-JUN, Kd ≤1 nM for XBP1-CREBZF, and Kd = 60 nM for ATF4-FOS, according to [18]. Fluorescence intensities were measured at both 37°C and 23°C, a ...
# XBP1 = target: T1, XBP1; conditions: native human bZIP binding XBP1; cited from earlier work
# Excerpt: We chose five human bZIP proteins as targets: X-box binding protein 1 (XBP1), JUN, Activating Transcription Factor (ATF) 3, ATF4 and ATF5. These are proteins for which an interaction partner was designed in prior work, but either the affinity or the specificity of the design left room for improvement. […] For example, XBP1-d1 was composed of heptads from N. vectensis, C. elegans and C. intestinalis proteins, and from previously designed bZIP binders. We also note that our four designs were composed of 24 distinct, non-recurring heptads. Thus, our design al ... || We compared the new designs to designed peptides targeting XBP1 and JUN reported by Grigoryan et al. for which FRET measurements were available. […] It should be noted that XBP1 presents a challenging target because three of its core a positions are occupied by asparagines. A matching asparagi ...
# [2] = target: T2, Activating Transcription Factor 4 …; assay: FRET or BRET; direct-binding FRET at 37°C; 10 nM fluorescein-labelled bZIP (donor), rhodamine-labelled design (acceptor) titrated 0 to 1 μM; 150 mM KCl, 50 mM potassium phosphate pH 7.4, 0.1% Tween-20, 0.1% BSA; conditions: both partners purified
# [3] = target: the molecule itself; assay: FRET or BRET; homodimer Kd of the designed peptide determined by FRET, 23°C; dimer to monomers
# ATF4 = target: T3, ATF4; conditions: native human bZIP binding ATF4; cited from earlier work
# Excerpt: For example, XBP1-d1 was composed of heptads from N. vectensis, C. elegans and C. intestinalis proteins, and from previously designed bZIP binders. We also note that our four designs were composed of 24 distinct, non-recurring heptads. Thus, our design al ...
# JUN = JUN (Homo sapiens, UniProt P05412); design: made in house; conditions: native human bZIP binding JUN; cited from earlier work
# JUN, sequence (P05412 252-315 limits assumed): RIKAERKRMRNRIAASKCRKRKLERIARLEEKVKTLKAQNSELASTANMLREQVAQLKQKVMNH
# Excerpt: For most bZIP pairs, binding of the N-terminally labeled designed peptide to a C-terminally labeled target gave very little signal, and such curves could rarely be fit to provide Kd values (S9–S12 Tables). In a few cases where interactions could be quantified with both N- and C-terminal dye labeling, we observed that the affinity of N-terminally labeled designs for C-terminally labeled targets was somewhat weaker than the affinity of C-terminally labeled designs (S5–S12 Tables). Enhanced affinities attributable to dye interactions have been reported previously. […] For example, XBP1-d1 was composed of heptads from N. vectensis, C. elegans and C. intestinalis proteins, and from previously designed bZIP binders. We also note that our four designs were composed of 24 distinct, non-recurring heptads. Thus, our design al ... || We compared the new designs to designed peptides targeting XBP1 and JUN reported by Grigoryan et al. for which FRET measurements were available. […] It should be noted that XBP1 presents a challenging target because three of its core a positions are occupied by asparagines. A matching asparagi ...
# [4] = target: T4, JUN bZIP construct, C-terminally fluoresceinated (human, UniProt P05412 252-315, fluorescein at the C-terminus); assay: FRET or BRET; direct-binding FRET at 37°C; 10 nM fluorescein-labelled bZIP (donor), rhodamine-labelled design (acceptor) titrated 0 to 1 μM; 150 mM KCl, 50 mM potassium phosphate pH 7.4, 0.1% Tween-20, 0.1% BSA; conditions: both partners purified
# T4 construct: source: previously described, donated by A.W. Reinke [18]
# T4 sequence (P05412 252-315): as the sequence (P05412 252-315 limits assumed) above
molecule,measurement,setting,value
ATF6: native human bZIP coiled coil,Kd,[1],5 µM
same,Kd,XBP1,1 nM
B1,Kd,[2],9.3 ± 2.3 nM
same,Kd,[3],36.3 nM
B2,Kd,ATF4,≥ 5 µM
B3,Kd,JUN,1 nM
B4,Kd,[4],5.8 ± 0.7 nM
